Data reported in article PMC8233230, “RAD51AP1 mediates RAD51 activity through nucleosome interaction” (The Journal of Biological Chemistry, 2021).

Assays:
[1] = system: RAD51AP1 full-length, His6/FLAG (human); assay: EMSA; settings: apparent, EMSA: 50 mM Tris-HCl pH 7.5, 100 mM NaCl, 4 C, 30 min, native 5% PAGE in 0.2x TBE
[2] = target: mononucleosome core particle (NCP) (human) (UniProt P04908); assay: native gel or EMSA; apparent; full-length RAD51AP1 with the NCP, free NCP band quantified after ethidium bromide staining, corrected for the diminished staining of NCP-bound DNA
purified human RAD51 = target: T1, purified human RAD51 (human, UniProt Q06609 1-339); assay: far-Western, overlay or dot blot; RAD51AP1/NCP complex separated by EMSA (native gel), transferred to PVDF, membrane incubated with 3 ug/ml purified RAD51 in buffer I at 4 C overnight, bound RAD51 detected with anti-RAD51; settings: both partners purified
T1 construct: DNA repair protein RAD51 homolog 1 (RAD51 recombinase), human; also called RAD51 recombinase; source: purified
T1 sequence (looked up): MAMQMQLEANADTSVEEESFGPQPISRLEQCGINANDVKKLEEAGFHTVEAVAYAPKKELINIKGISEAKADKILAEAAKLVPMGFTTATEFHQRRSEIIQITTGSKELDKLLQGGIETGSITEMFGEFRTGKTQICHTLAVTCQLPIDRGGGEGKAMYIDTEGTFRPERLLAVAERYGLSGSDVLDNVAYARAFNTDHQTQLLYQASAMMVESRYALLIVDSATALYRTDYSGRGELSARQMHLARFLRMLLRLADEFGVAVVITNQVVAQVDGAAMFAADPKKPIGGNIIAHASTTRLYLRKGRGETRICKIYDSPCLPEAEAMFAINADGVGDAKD

Molecule 147 bp dsDNA (Widom 601) has a Kd ([1]; 0.1 uM DNA, EtBr stain) of 12 nM.

With NCP (Widom 601, 147 bp) the Kd ([1]; corrected for EtBr staining (111/5.2; uncorrected 111 nM), 0.2 uM NCP) was 21 nM.

In the case of “full-length MBP-/His6-RAD51AP1 (from UniProt Q96B01-2 1-335) (natural protein)”, the Kd [2] is reported as 21 nM.

B1: His6-/FLAG-tagged human RAD51AP1 (natural protein, UniProt Q96B01-2 1-335, looked up)
chain: MVRPVRHKKPVNYSQFDHSDSDDDFVSATVPLNKKSRTAPKELKQDKPKPNLNNLRKEEIPVQEKTPKKRMALDDKLYQRDLEVALALSVKELPTVTTNVQNSQDKSIEKHGSSKIETMNKSPHISNCSVASDYLDLDKITVEDDVGGVQGKRKAASKAAAQQRKILLEGSDGDSANDTEPDFAPGEDSEDDSDFCESEDNDEDFSMRKSKVKEIKKKEVKVKSPVEKKEKKSKSKCNALVTSVDSAPAAVKSESQSLPKKVSLSSDTTRKPLEIRSPSAESKKPKWVPPAASGGSRSSSSPLVVVSVKSPNQSLRLGLSRLARVKPLHPNATST
notes: numbers count on: RAD51AP1 isoform 2; also called His6/FLAG-tagged RAD51AP1; full-length FLAG-tagged RAD51AP1; source: expressed and purified
B1: binds (purified human RAD51).
